The text below walks through data of patent publication US20240251767A1 (LEVERAGEN, published 2024).

For assay [1], the target named is T1, SARS-Cov2 Spike Active Trimer SAT (R&D Systems; Catalog No. 10549-CV) (SARS-CoV2, UniProt P0DTC2 16-1211).
T1 construct: also called SARS-CoV2 Spike Active Trimer protein; recombinant SAT protein
The assay can be described thus: ELISA, serially diluted purified Nb-Fc on SAT antigen. Background: ELISA stands for enzyme-linked immunosorbent assay.

Assay [2] has as its target T1, SARS-Cov2 Spike Active Trimer SAT (R&D …). Kind of assay: SPR (Carterra).
Assay [3] has the same target.
The target is the same in assay [4].

Where two headings read alike, the source gives them in different places.

B1: M2S521_378 Nb-human Fc fusion (Fc fusion, not shown: a dimerising Fc or GST)
VH: EVQLQQSGPELVKPGASVKISCKASGYTFTDYYMKWVKQSHGKSLEWIGDINPKNGGTNYNQKFKDKATLTVDKSSSTAYMELRSLTSEDSAVYYCARLEDGYYGYAIDYWSQGTSVTVSS
notes: also called LVGN-S231378; LVGN-S521378
For B1, in assay [1], the EC50 – broadly, the midpoint of the concentration-response curve – was found to be 0.081 nM.

B2: MS329_5 Nb-human Fc fusion (Fc fusion, not shown: a dimerising Fc or GST)
VH: EVQLQQSGPELVKPGASVKMSCKASGYTFTDYYIKWEKQSHGKSLEWIGDINPKNGETFYNQQFKGKATLTVDKSSSTAYMQLNSLTSEDSAVYYCARKEYGDYGYAVDYWGQGTSVTVSS
notes: also called LVGN-S3205; LVGN-53205
On to B2, for which binding in assay [2] was put at a Kd of 3.17 nM. In assay [1], the EC50 was determined as 0.024 nM. Moreover, binding in assay [3] was put at a Kd of 1.21 nM. Besides, in assay [4], the affinity, expressed as Kd, was 1.06 nM; the koff (in general, the first-order rate constant of dissociation) came out at 0.000143 s⁻¹; the kon (usually the second-order rate constant of association) stood at 135000 M⁻¹ s⁻¹.
